We go through 2 molecules from US20060014937A1.

Where a chain is given by its changes, count along the chain named.

The target in the experiment is HBV S-surface antigen (International Enzyme Inc., USA) adr type (hepatitis B virus (adr type)). In words: competition ELISA in solution (Friguet method): antibody pre-mixed with 10^-11 to 10^-6 M antigen, free antibody caught on antigen-coated plate. On the technique in general: ELISA stands for enzyme-linked immunosorbent assay.

B1: humanized antibody YHB1110-13 (antibody, V domains shown)
VH: QVQLKQSGPGLVKPSQTLSLTCTVSGFSLSTYGVQWVRQPPGKGLEWLGVIWSGGNTDYNAAFISRVTISKDTSKNQVSLKLSSVTAADTAVYYCARARYFDVWGAGTTVTVSS
VL: QAVVTQEPSLTVSPGGTVTLTCRSSTGAITTNNFANWFQQKPGQAFRGLIGDTNNRVPGVPARFSGSLLGNKAALTITGAQPEDEAEYYCALWYNNWVFGGGTKLTVLG
In turn, B1 had a Ka of 1e+08 M⁻¹.

B2: humanized antibody YHB1110-15 (antibody, V domains shown)
VH: B1 VH
VL: B1 VL with L69I, N71D
The molecule B2 registered a Ka of 7e+07 M⁻¹.
